# Entries after “also recorded” stand apart in the source; their conditions may differ.
# B1: tPA-S^481A: catalytically inactive human tPA variant, Ser481 substituted to Ala; SEQ ID NO. 1 (SEQ ID NO. 12 with N-terminal RS) (protein, listed as Homo sapiens)
# chain: GARSYQVICRDEKTQMIYQQHQSWLRPVLRSNRVEYCWCNSGRAQCHSVPVKSCSEPRCFNGGTCQQALYFSDFVCQCPEGFAGKCCEIDTRATCYEDQGISYRGTWSTAESGAECTNWNSSALAQKPYSGRRPDAIRLGLGNHNYCRNPDRDSKPWCYVFKAGKYSSEFCSTPACSEGNSDCYFGNGSAYRGTHSLTESGASCLPWNSMILIGKVYTAQNPSAQALGLGKHNYCRNPDGDAKPWCHVLKNRRLTWEYCDVPSCSTCGLRQYSQPQFRIKGGLFADIASHPWQAAIFAKHRRSPGERFLCGGILISSCWILSAAHCFQERFPPHHLTVILGRTYRVVPGEEEQKFEVEKYIVHKEFDDDTYDNDIALLQLKSDSSRCAQESSVVRTVCLPPADLQLPDWTECELSGYGKHEALSPFYSERLKEAHVRLYPSSRCTSQHLLNRTVTDNMLCAGDTRSGGPQANLHDACQGDAGGPLVCLNDGRMTLVGIISWGLGCGQKDVPGVYTKVTNYLDWIRDNMRP
# Experiments:
# [1] = system: mice treated with Coumadin and subjected to CHI; assay: Closed head injury (CHI) in mice anticoagulated with warfarin (Coumadin); type: in vivo, mouse; conditions: WT mice, INR 2.5; tPA-S481A 1 mg/kg immediately after TBI; Hgb at 2 or 8 hrs; FIG. 6C
# From the text: (§1) Closed Head Injury (CHI) Model
# (§2) Head trauma was induced by using a modified weight-drop device, as previously described (Chen Y. et al. (1996) J. Neurotrauma, 13:557-568). Briefly, after induction of ether anesthesia, a midline longitudinal incision was made, the skin was retracted and the skull was exposed. The left anterior frontal area was identified and a Teflon tipped cone (2-mm diameter) was placed 1 mm lateral to the midline, in the midcoronal plane. The head was held in place manually and a 75-g weight was dropped on the cone from a height of 18 cm, resulting in focal injury to the left hemisphere. After trauma, the mice received supporting oxygenation with 95% 02 for no longer than 2 min and were then returned to their cages. In sham controls only anesthesia and skin incision were carried out.
# uPA [2] = biological target: T1, uPA (Homo sapiens, UniProt P00749); assay: Fibrinolysis assay in human plasma derived clots, lysis by uPA; type: biochemical; conditions: uPA 50 nM; mutant 50 nM; FIG. 2A, 2B
# T1 construct: Single-chain urokinase (uPA) was purified, characterized as previously reported; made in house
# Experimental: (§3) Fibrinolysis Assay in Human Plasma Derived Clots
# (§4) Clots were formed by placing human plasma (200 μL) in 16-mm diameter tissue culture wells flowed by adding thrombin (0.4 U/mL final concentration). Fibrinolysis was measured as described in Higazi A A et al., Blood (1998), 92(6):2075-83). Briefly, 10 μL tPA or uPA were placed over the plasma clots for 2 hours at 37° C., photographed and the diameter of the wholes were determined.
# reteplase = reteplase (Homo sapiens, UniProt P00750); assay: Fibrinolysis assay in human plasma derived clots, lysis by reteplase; type: biochemical; conditions: reteplase 20 nM, mutant 10 nM, FIG. 2B
# Experimental: as §3, §4
# WT-tPA = assay: Fibrinolysis assay in human plasma derived clots, lysis by WT-tPA; type: biochemical
# Chain of WT-tPA (P00750 36-562): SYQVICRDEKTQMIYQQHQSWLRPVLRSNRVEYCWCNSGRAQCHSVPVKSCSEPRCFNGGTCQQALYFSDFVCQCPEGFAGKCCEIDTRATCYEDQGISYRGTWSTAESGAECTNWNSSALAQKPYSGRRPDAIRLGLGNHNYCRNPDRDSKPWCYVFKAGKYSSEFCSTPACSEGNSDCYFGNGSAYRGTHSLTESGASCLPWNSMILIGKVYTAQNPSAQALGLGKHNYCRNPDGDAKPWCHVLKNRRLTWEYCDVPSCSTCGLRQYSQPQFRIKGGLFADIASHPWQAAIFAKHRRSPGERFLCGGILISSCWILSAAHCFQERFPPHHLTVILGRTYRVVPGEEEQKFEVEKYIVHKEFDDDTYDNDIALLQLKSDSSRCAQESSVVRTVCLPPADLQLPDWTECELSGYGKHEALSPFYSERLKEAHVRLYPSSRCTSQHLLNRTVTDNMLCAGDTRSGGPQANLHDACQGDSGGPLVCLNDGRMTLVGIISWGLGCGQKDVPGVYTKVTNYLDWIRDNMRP
# Experimental: as §3, §4
# uPA [3] = biological target: T1, uPA; assay: Plasminogen activator activity, chromogenic assay without fibrin, activation by uPA; type: biochemical; conditions: FIG. 2D; for plasminogen activation by uPA in the absence of fibrin, in the presence of TA: mutant 100 nM added together with TA
# Experimental: (§5) Plasminogen Activator Activity
# (§6) Plasminogen activator activity was determined by adding tPA (50 nM) or uPA (20 nM), to a reaction mixture containing Glu-plasminogen and the plasmin chromogenic substrate Spectrazyme PL (100 μM) in phosphate-buffered saline (PBS) at 37° C., and the light absorbance at 405 nm was measured continuously over time. The initial velocities of plasmin generation at the different conditions were calculated from the change in the A405 nm over time. The initial velocity of the reaction at each plasminogen concentration was obtained by calculating the change in the rate of A405 over different time intervals and the results were expressed as the change in optical density (ΔOD) per minute, which represents the slope of the initial velocity of plasminogen activation (Higazi A et al., J Biol Chem. (1995), 270(29):17375-80).
# tPA = assay: Plasminogen activator activity, chromogenic assay without fibrin, activation by tPA; type: biochemical, human; conditions: FIG. 2D; for plasminogen activation by tPA in the absence of fibrin, in the presence of TA: mutant 100 nM added together with TA
# Experimental: as §5, §6
# NMDA-Rs = assay: Activation of NMDA-Rs by WT-tPA
# WT mice subjected to CHI = assay: Closed head injury (CHI) model of TBI in WT mice; type: in vivo, mouse
# Experimental: Eight to twelve weeks old C57 mice obtained from Harlan, Israel. Mice were administered standard laboratory chow and water ad libitum, and kept in controlled temperature and light conditions. Animal experiments were carried out according to the guidelines of the Hebrew University-Institutional Committee for Care and Use of Laboratory Animals, and with the committee's approval.
# as §1, §2
# [4] = system: tPA-/- and uPA-/- mice subjected to CHI; assay: Closed head injury (CHI) model in tPA-/- and uPA-/- mice; type: in vivo, mouse; conditions: WT-tPA or WT-uPA 5 mg/kg plus equimolar dose of mutant
# From the text: as §1, §2
# plasminogen = biological target: T2, plasminogen (Homo sapiens, UniProt P00747); assay: Ser481-Ala tPA/plasminogen protein interaction assay by co-immunoprecipitation; type: binding
# T2 construct: Glu-plasminogen was prepared from human plasma; from tissue; host or cells: human plasma
# Experimental: Ser^481-Ala tPA/Plasminogen Protein Interaction Assay by Co-Immunoprecipitation
# Human Ser^481-Ala tPA and plasminogen, each at 100 nM final concentration in absence or presence of 1 μM uPA or fibrin degradation products, were incubated with goat polyclonal antibody to plasminogen and incubated with Protein A agarose. The protein A agarose beads were separated by centrifugation, washed, and boiled for 5 min. The beads were precipitated by centrifugation and the samples were run on NuPAGE 4-12%. As a control, 80 ng of human Ser^481-Ala tPA was loaded on the gel. The proteins from the gel were transferred onto a PVDF membrane. The membrane was blocked in milk/PBST before incubation for 1 hr with mouse monoclonal antibody to tPA. Subsequently it was washed, incubated with goat anti-mouse IgG-HRP conjugate, washed again, and detected with ECL.
# WT tPA = biological target: T3, WT tPA (Homo sapiens, UniProt P00750); assay: Fibrinolysis assay in clots from fresh whole human blood monitored by thromboelastography (TEG), lysis by WT tPA; type: biochemical; conditions: WT tPA 10 nM; 50 or 500 nM tPA-S481A; FIG. 2C
# T3 construct: purchased Genentech (South San Francisco, Calif.)
# T3 sequence (P00750 36-562): as above
# Experimental: (§7) Fibrinolysis Assay in Blood Clots Derived from Fresh Whole Human Blood
# (§8) Clot viscoelastic properties were assessed by thromboelastography (TEG®, Haemoscope) and rotational thromboelastometry (ROTEM®, Pentapharm). Both systems use a vertical pin within a cup that contains the WB sample. In TEG®, the cup oscillates and the pin is stationary whereas in ROTEM®, the cup is stationary while the pin oscillates. As a clot forms between the cup and the pin, the reduction in transmitted rotation from the cup to the pin (TEG®) or impedance to the oscillatory movement of the pin (ROTEM®) is detected and a trace is generated.
# uPA [5] = biological target: T1, uPA; assay: Fibrinolysis assay in clots from fresh whole human blood monitored by thromboelastography (TEG), lysis by uPA; type: biochemical; conditions: uPA 10 nM; 50 or 500 nM tPA-S481A; FIG. 2C
# Experimental: as §7, §8
molecule,measurement,setting,value
B1,post-traumatic intracerebral hemorrhage (brain hemoglobin) in warfarin-anticoagulated mice,[1],almost totally inhibited
same,lysis of human plasma derived clots by uPA,uPA [2],inhibited lysis
same,clot lysis induced by reteplase,reteplase,inhibit the clot lysis induced by reteplase
same,clot lysis induced by reteplase,reteplase; listed as tPA^Ser481Ala,inhibit the fibrinolysis
same,potency as inhibitor of fibrinolysis compared with TA,"WT-tPA; TA tested at its maximal inhibitory concentration, FIG. 2B",more potent inhibitors of fibrinolysis than TA
same,lysis of human plasma derived clots by WT-tPA,"WT-tPA; WT-tPA 20 nM, mutant 50 nM, FIG. 2A, 2B",inhibited lysis
same,"plasminogen activation by uPA in the absence of fibrin, in the presence of TA",uPA [3],inhibited the activation of plasminogen by uPA
same,"plasminogen activation by uPA in the absence of fibrin, in the presence of TA",uPA [3]; listed as tPA^Ser481Ala,inhibit plasminogen activation
same,plasminogen activation by uPA in the absence of fibrin (change in OD per minute),"uPA [3]; plasminogen 500 nM, uPA 20 nM, mutants 100 nM or TA 200 nM alone",Neither tPA-S^481A nor tPA-S^481A-DS inhibited; also recorded: had no effect
same,"plasminogen activation by tPA in the absence of fibrin, in the presence of TA",tPA,inhibited the plasminogen activation induced by tPA
same,"plasminogen activation by tPA in the absence of fibrin, in the presence of TA",tPA; listed as tPA^Ser481Ala,inhibit plasminogen activation
same,plasminogen activation by tPA in the absence of fibrin (change in OD per minute),"tPA; plasminogen 500 nM, WT-tPA 50 nM, mutants 100 nM or TA 200 nM alone",Neither tPA-S^481A nor tPA-S^481A-DS inhibited; also recorded: had no effect
same,activation of NMDA-Rs by WT-tPA,NMDA-Rs,inhibited activation of NMDA-Rs by WT-tPA
same,intracerebral hemorrhage increased by injected WT-tPA post CHI,WT mice subjected to CHI; WT mice given WT-tPA 5 mg/kg immediately after CHI plus equimolar mutant,could be inhibited
same,plasma levels of d-Dimers post CHI,"WT mice subjected to CHI; WT mice, 1 mg/kg IV, measured 2 hours after CHI, FIG. 4A, 1 mg/kg",significantly attenuated the increase in d-Dimers; also recorded: inhibited the formation of d-Dimers
same,platelet counts / thrombocytopenia post CHI,"WT mice subjected to CHI; WT mice, 1 mg/kg IV, measured 2 hours after CHI, FIG. 4B, 1 mg/kg",prevented the development of thrombocytopenia; also recorded: inhibited the development of thrombocytopenia
same,CSF fibrinolytic activity post CHI,"WT mice subjected to CHI; WT mice, IV after CHI, CSF obtained 2 hours after CHI, tested on plasma derived clots",inhibited CSF fibrinolytic activity
same,"intracerebral hemorrhage (MRI, extravasation of Hgb) post CHI","WT mice subjected to CHI; WT mice, IV immediately after or 2 hrs after CHI, Hgb at 2 or 8 hrs, MRI at 24 hrs",significantly attenuated the expansion of intracerebral hemorrhage; also recorded: inhibited
same,inhibition of intracerebral hemorrhage compared with combination of TA and aprotinin,"WT mice subjected to CHI; combination in optimal concentrations, FIG. 3B",comparable to the inhibition induced by a combination of TA and aprotinin
same,"neuroprotection (neurological severity score, NSS)","WT mice subjected to CHI; given 2 hrs after CHI, FIG. 5",the difference in neuroprotection provided by the two tPA variants vanished
same,"neuroprotection (neurological severity score, NSS, 24 hours after CHI)","WT mice subjected to CHI; given IV immediately after CHI, 1 mg/kg, FIG. 5",exerts neuroprotection
same,potency as inhibitor of intracerebral hemorrhage compared with TA or aprotinin,"WT mice subjected to CHI; optimal concentrations of TA or aprotinin, FIG. 3B",more potent inhibitors of intracerebral hemorrhage than optimal concentrations of TA or aprotinin
same,expansion of post traumatic ICH in knock-out mice given exogenous WT-tPA or WT-uPA,[4],inhibited the expansion of the post traumatic ICH
same,binding to plasminogen (complex formation),"plasminogen; in the absence of fibrin, 100 nM each",no complexes were formed
same,binding to plasminogen (complex formation),"plasminogen; in the presence of fibrin, 100 nM each, immunoprecipitated with anti-plasminogen, detected with anti-tPA",binds to plasminogen only in the presence of fibrin; also recorded: formed a stable complex
same,binding to plasminogen (complex formation),plasminogen; with fibrin in the presence of 1 μM uPA,inhibited by uPA
same,"lysis of clots from fresh whole human blood monitored by TEG, by WT tPA",WT tPA,inhibited lysis
same,"lysis of clots from fresh whole human blood monitored by TEG, by uPA",uPA [5],inhibited lysis

# Reference: US10188706B2, “Plasminogen activator mutants as anti-fibrinolytic agents” (HADASIT MEDICAL RESEARCH SERVICES & DEVELOPMENT LIMITED, priority 2012, dated 2019)
